In patent US20230287090A1 (FEINSTEIN INSTITUTES FOR MEDICAL RESEARCH, published 2023):
Where a chain is given by its changes, count along the chain named. Read-outs that look alike come from different tables or passages of the source.

Experiments:
[1] = biological target: T1, Recombinant receptor-binding motif (RBM, residues 437-508) of SARS-CoV-2 spike (S) protein with N-terminal … (SARS-CoV-2, UniProt P0DTC2 437-508)
[2] = biological target: T2, TN
T2 single chain: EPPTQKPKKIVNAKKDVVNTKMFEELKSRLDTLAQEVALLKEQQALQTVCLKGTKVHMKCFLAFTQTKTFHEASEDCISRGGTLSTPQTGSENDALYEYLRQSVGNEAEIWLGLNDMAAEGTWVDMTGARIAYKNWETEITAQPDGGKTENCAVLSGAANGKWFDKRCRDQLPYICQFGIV

[3] = biological target: T1, Recombinant receptor-binding motif …; remark: listed apart in the source
[4] = biological target: T1, Recombinant receptor-binding motif …; remark: listed apart in the source

B1: Clone 27B12 (mAb8) (antibody, V domains shown)
VH: DVKLVESGGGLVKLGGSLKLSCAASGFTFSTDYMSWVRQSPEKRLELVAAINSNGGTTYYPDTVKGRFIISRDNAKNTLYLQMSSLRSEDTALYYCARQVKNGLDYWGQGTSVTVSS
VL: DIQMTQTTSSLSASLGDRVTISCRASQDISNYLNWYQQKPDGTVKLLIYKTSRLHSGVPSRFRGSGSGTDYSLTISNLEEEDVATYFCQQGNTLPPTFGGGTKLEIK
[1]
  Kd: 57.4 nM
[2]
  Kd: 2.02 nM
[3]
  Kd: 17.4 nM
[4]
  Kd: 17.4 nM

B2: 23F6 (mAb5) (antibody, V domains shown)
VH: B1 VH with T31S, D32S, S40T, S53N, I69T, R87K, A97T, V100G
VL: B1 VL with S30G, Y32L, Y49S, K50Y, R63S, S76T, E80Q, V83I, G91A, T102S
[2]
  Kd: 8.03 nM

B3: Clone 18B1 (mAb2) (antibody, V domains shown)
VH: B1 VH with K13N, T31S, S40I, I69T, R87K, V100G, L104M
VL: B1 VL with Y32H, K39R, K50Y, R63S, L73F, S76T, E79D, E80Q, V83I, N92K
[2]
  Kd: 0.114 nM
[3]
  Kd: 62.8 nM
[4]
  Kd: 62.8 nM

B4: Clone 25B2 (mAb6) (antibody, V domains shown)
VH: B1 VH with K3N, A24D, T31S, D32Y, S40T, T57R, I69T, R87K, V100G
VL: B1 VL with Y32H, V44I, K50Y, R63S, Y71F, T74S, E80Q, V83I, N92K
[2]
  Kd: 0.915 nM
[3]
  Kd: 180 nM
[4]
  Kd: 180 nM
